Patent US9333268B2, “Methods of treatment with arginine deiminase” (Polaris Group, priority 2012, dated 2016)

Assays:
[1] = system: ASS-positive colon carcinoma cell line SW1222; experiment: MTS proliferation assay, adherent cells; type: cell-based; settings: 0 to 10 mIU ml^−1, 120 h
Protocol: (§1) To assess the anti-proliferative effect of ADI-PEG 20 on adherent cells, cells were plated a density of 2×10^3 cells per well in a tissue culture 96-microwell plate and allowed to adhere overnight. The following day, cells were treated with ADI-PEG 20 (DesigneRx Pharmaceuticals, Vacaville, Calif., USA, a subsidiary of Polaris Group, San Diego, Calif., USA) ranging from 0 to 10 mIU ml^−1. After incubation for 120 h, cell viability was determined using (3-(4,5-dimethylthiazol-2-yl)-5-(3-carboxymethoxyphenyl)-2-(4-sulfophenyl)-2H-tetrazolium) (MTS, CellTiter 96 AQueous One Solution, Promega, Madison, Wis., USA), according to the manufacturers protocol. Twenty microliters of MTS reagent was added to the appropriate control and assay wells before the plate was incubated for 2 h at 37° C. and absorbance read at 490 nm. Absolute absorbance for each treatment was determined by subtracting the background MTS absorbance, and the mean and standard deviation was calculated. The effect of the autophagy inhibitor chloroquine (Sigma) on cell proliferation was assessed using the MTS assay.

SW1222 = experiment: MTS viability of siRNA-transfected ASS-positive SW1222 cells treated with ADI-PEG 20; type: cell-based
Protocol: as §1
To further assess the importance of cellular ASS expression in response to treatment with ADI-PEG 20, expression of ASS was silenced through the use of ASS-specific siRNA. Small interfering RNA constructs were obtained from Integrated DNA technologies (IDT, Coralville, Iowa, USA) against the ASS-coding region. […]

[2] = system: L-arginine and L-citrulline; experiment: Serum arginine and citrulline by HPLC; type: in vivo, mice
Protocol: In order to determine the effect of ADI-PEG 20 treatment on systemic arginine levels, mice sera were analyzed using high-performance liquid chromatography (HPLC). L-arginine and L-citrulline were resolved with a Pickering Laboratories PCX 5200 post-column derivatization instrument (Pickering Laboratories, Mountain View, Calif., USA) at 39° C. reaction temperature and a fluorescence detector. […] Total ADI-PEG 20 levels were measured by ELISA, as described previously (Holtsberg et al, J Control Release 80(1-3):259-271, 2002).

NCI-H69 xenografts = experiment: ASS-positive NCI-H69 SCLC xenografts in BALB/c-nude mice; type: in vivo; settings: five doses of 2 IU over 20 days, intraperitoneal
Protocol: The activity of ADI-PEG 20 was also assessed in mice bearing ASS-positive NCI-H69 SCLC xenografts. Small cell lung cancer xenografts were established in female BALB/c-nude mice, 3-4 weeks of age weighing ˜20 g (Charles River Labs, Wilmington, Mass., USA). To establish the tumors, 10×10^6 cells in media were mixed 1:1 with Matrigel High Concentration (BD Biosciences) and injected subcutaneously in the abdominal area of the mice. Tumor growth was regularly measured and tumor volume calculated using the formula (TV=(length×width^2)/2). All animal studies were approved by the MSKCC Institutional Animal Care and Use Committee. Mice were euthanized when tumors reached an approximate volume of 1,000 mm^3.
The anti-tumor efficacy of ADI-PEG 20 was simultaneously assessed in mice bearing either moderate or large SK-LC-13 SCLC xenografts. In the first study, treatment was initiated once tumors had reached an average size of 125 mm^3. In the large xenograft study, treatment was initiated once tumors had reached an average size of 500 mm^3. Arginine deiminase-PEG20 was administered at doses of 1, 2 and 5 IU per animal once every 5 days for 20 days (five doses). […] Additionally, the efficacy of ADI-PEG 20 was assessed in mice bearing ASS-positive NCI-H69 xenografts. […]

B1: ADI-PEG 20: arginine deiminase (ADI) formulated with PEG of 20,000 m.w. (protein)
chain: MSVFDSKFNGIHVYSEIGELETVLVHEPGREIDYITPARLDELLFSAILESHDARKEHQSFVKIMKDRGINVVELTDLVAETYDLASKAAKEEFIETFLEETVPVLTEANKEAVRAFLLSKPTHEMVEFMMSGITKYELGVESENELIVDPMPNLYFTRDPFASVGNGVTIHFMRYIVRRRETLFARFVFRNHPKLVKTPWYYDPAMKMSIEGGDVFIYNNETLVVGVSERTDLDTITLLAKNIKANKEVEFKRIVAINVPKWTNLMHLDTWLTMLDKNKFLYSPIANDVFKFWDYDLVNGGAEPQPQLNGLPLDKLLASIINKEPVLIPIGGAGATEMEIARETNFDGTNYLAIKPGLVIGYDRNEKTNAALKAAGITVLPFHGNQLSLGMGNARCMSMPLSRKDVKW
growth [1]: No effect
cell viability (SW1222; cells treated with ASS siRNA): reduced cell viability
cell viability (SW1222; control or scrambled siRNA-treated cells): no decrease in viability
citrulline levels ([2]; 1, 2, 5 IU): rose in a dose-dependent relationship to arginine
serum arginine after end of dosing ([2]; 20 days after the last dose (day 40)): returned to normal levels
citrulline levels ([2]; continued dosing, 2 and 5 IU): Little increase in citrulline levels
arginine serum levels ([2]; extended dosing, 1 IU): below the limits of detection
citrulline levels ([2]; extended dosing, 1 IU): increased with extended dosing
serum arginine ([2]; short course of treatment): only temporarily depleted serum arginine
tumor growth (NCI-H69 xenografts): did not produce any effect on tumor growth
